From the supplement of paper PMC10567573

B1: ALDH8A1 (parent)
chain: WSSRSPQERSRVLNQVADLLEQSL
B2: FAM164A (parent)
chain: YDPDYIQCPYCQRRFNENAADRHI
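Note: lentivirally expressed fusions sorted by FACS into six bins by GFP to DsRed ratio, PSI derived from sequencing read proportions per bin multiplied by bin number.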

Variants of: B1
Experiment: protein stability index of a GFP-peptide fusion (GPS, HEK-293T) (PSI 1-6); higher = more stable
Conditions: c terminus: a fixed tail appended
In the case of WSSRSPQERSRVLNQVADLLEQSP [L24P], the protein stability index is reported as 4.16.
With WSSRSPQERSRVLNQVADLLEQSR [L24R] the protein stability index was 3.49.
In the case of WSSRSPQERSRVLNQVADLLEQSH [L24H], the protein stability index is reported as 3.96.
In the case of WSSRSPQERSRVLNQVADLLEQSN [L24N], the protein stability index is reported as 2.96.
Variant WSSRSPQERSRVLNQVADLLEQSQ [L24Q] has a protein stability index of 3.4.
Work on WSSRSPQERSRVLNQVADLLEQSG [L24G] yielded a protein stability index of 3.16.
In the case of WSSRSPQERSRVLNQVADLLEQST [L24T], the protein stability index is reported as 3.34.
WSSRSPQERSRVLNQVADLLEQSV [L24V] gave a protein stability index of 2.29.
For WSSRSPQERSRVLNQVADLLEQSK [L24K], the protein stability index was 3.94.
For WSSRSPQERSRVLNQVADLLEQSM [L24M], the protein stability index was 2.86.
WSSRSPQERSRVLNQVADLLEQSE [L24E] gave a protein stability index of 3.59.
WSSRSPQERSRVLNQVADLLEQSD [L24D] showed a protein stability index of 4.17.
Work on WSSRSPQERSRVLNQVADLLEQSF [L24F] yielded a protein stability index of 2.03.
In the case of WSSRSPQERSRVLNQVADLLEQSY [L24Y], the protein stability index is reported as 1.86.
Work on WSSRSPQERSRVLNQVADLLEQSA [L24A] yielded a protein stability index of 2.88.
WSSRSPQERSRVLNQVADLLEQSS [L24S] showed a protein stability index of 3.61.
In the case of WSSRSPQERSRVLNQVADLLEQSC [L24C], the protein stability index is reported as 2.9.
In the case of WSSRSPQERSRVLNQVADLLEQSW [L24W], the protein stability index is reported as 2.19.
With WSSRSPQERSRVLNQVADLLEQSI [L24I] the protein stability index was 1.76.
In the case of WSSRSPQERSRVLNQVADLLEQAL [S23A], the protein stability index is reported as 2.31.
With WSSRSPQERSRVLNQVADLLEQYL [S23Y] the protein stability index was 1.72.
WSSRSPQERSRVLNQVADLLEQEL [S23E] showed a protein stability index of 3.39.
WSSRSPQERSRVLNQVADLLEQPL [S23P] gave a protein stability index of 3.15.
WSSRSPQERSRVLNQVADLLEQML [S23M] showed a protein stability index of 2.3.
With WSSRSPQERSRVLNQVADLLEQVL [S23V] the protein stability index was 2.09.
For WSSRSPQERSRVLNQVADLLEQIL [S23I], the protein stability index was 2.51.
WSSRSPQERSRVLNQVADLLEQFL [S23F] gave a protein stability index of 2.24.
WSSRSPQERSRVLNQVADLLEQCL [S23C] showed a protein stability index of 1.96.
WSSRSPQERSRVLNQVADLLEQWL [S23W] showed a protein stability index of 1.94.
In the case of WSSRSPQERSRVLNQVADLLEQNL [S23N], the protein stability index is reported as 3.45.
WSSRSPQERSRVLNQVADLLEQHL [S23H] gave a protein stability index of 2.77.
In the case of WSSRSPQERSRVLNQVADLLEQKL [S23K], the protein stability index is reported as 3.53.
Variant WSSRSPQERSRVLNQVADLLEQGL [S23G] has a protein stability index of 2.54.
WSSRSPQERSRVLNQVADLLEQTL [S23T] showed a protein stability index of 1.94.
Work on WSSRSPQERSRVLNQVADLLEQLL [S23L] yielded a protein stability index of 2.11.
In the case of WSSRSPQERSRVLNQVADLLEQQL [S23Q], the protein stability index is reported as 3.39.
For WSSRSPQERSRVLNQVADLLEQDL [S23D], the protein stability index was 4.17.
WSSRSPQERSRVLNQVADLLEQRL [S23R] gave a protein stability index of 3.64.
For WSSRSPQERSRVLNQVADLLESSL [Q22S], the protein stability index was 3.1.
In the case of WSSRSPQERSRVLNQVADLLEWSL [Q22W], the protein stability index is reported as 1.95.
Variant WSSRSPQERSRVLNQVADLLEVSL [Q22V] has a protein stability index of 1.91.
WSSRSPQERSRVLNQVADLLETSL [Q22T] gave a protein stability index of 2.53.
With WSSRSPQERSRVLNQVADLLERSL [Q22R] the protein stability index was 2.72.
With WSSRSPQERSRVLNQVADLLEYSL [Q22Y] the protein stability index was 2.33.

Variants of: B2
Experiment: as above
Conditions: c terminus: a fixed tail appended
In the case of YCPDYIQCPYCQRRFNENAADRHI [D2C], the protein stability index is reported as 2.33.
YYPDYIQCPYCQRRFNENAADRHI [D2Y] showed a protein stability index of 3.71.
With YWPDYIQCPYCQRRFNENAADRHI [D2W] the protein stability index was 3.42.
YTPDYIQCPYCQRRFNENAADRHI [D2T] showed a protein stability index of 2.33.
Work on YGPDYIQCPYCQRRFNENAADRHI [D2G] yielded a protein stability index of 3.96.
With YLPDYIQCPYCQRRFNENAADRHI [D2L] the protein stability index was 2.69.
YFPDYIQCPYCQRRFNENAADRHI [D2F] gave a protein stability index of 3.52.
Work on YPPDYIQCPYCQRRFNENAADRHI [D2P] yielded a protein stability index of 3.64.
With YVPDYIQCPYCQRRFNENAADRHI [D2V] the protein stability index was 2.37.
For YMPDYIQCPYCQRRFNENAADRHI [D2M], the protein stability index was 3.49.
YIPDYIQCPYCQRRFNENAADRHI [D2I] gave a protein stability index of 2.38.
Variant YNPDYIQCPYCQRRFNENAADRHI [D2N] has a protein stability index of 4.26.
In the case of YQPDYIQCPYCQRRFNENAADRHI [D2Q], the protein stability index is reported as 3.55.
With YRPDYIQCPYCQRRFNENAADRHI [D2R] the protein stability index was 4.07.
In the case of YSPDYIQCPYCQRRFNENAADRHI [D2S], the protein stability index is reported as 2.59.
Work on YEPDYIQCPYCQRRFNENAADRHI [D2E] yielded a protein stability index of 4.93.
In the case of YAPDYIQCPYCQRRFNENAADRHI [D2A], the protein stability index is reported as 2.46.
Work on YKPDYIQCPYCQRRFNENAADRHI [D2K] yielded a protein stability index of 4.37.
With YHPDYIQCPYCQRRFNENAADRHI [D2H] the protein stability index was 2.78.
With YDPDEIQCPYCQRRFNENAADRHI [Y5E] the protein stability index was 4.57.
For YDPDGIQCPYCQRRFNENAADRHI [Y5G], the protein stability index was 4.14.
In the case of YDPDFIQCPYCQRRFNENAADRHI [Y5F], the protein stability index is reported as 4.07.
Variant YDPDRIQCPYCQRRFNENAADRHI [Y5R] has a protein stability index of 3.52.
Variant YDPDMIQCPYCQRRFNENAADRHI [Y5M] has a protein stability index of 4.9.
Variant YDPDVIQCPYCQRRFNENAADRHI [Y5V] has a protein stability index of 4.41.
Work on YDPDCIQCPYCQRRFNENAADRHI [Y5C] yielded a protein stability index of 4.01.
YDPDTIQCPYCQRRFNENAADRHI [Y5T] gave a protein stability index of 4.14.
Variant YDPDQIQCPYCQRRFNENAADRHI [Y5Q] has a protein stability index of 4.12.
YDPDIIQCPYCQRRFNENAADRHI [Y5I] showed a protein stability index of 4.41.
In the case of YDPDLIQCPYCQRRFNENAADRHI [Y5L], the protein stability index is reported as 4.25.
In the case of YDPDWIQCPYCQRRFNENAADRHI [Y5W], the protein stability index is reported as 4.68.
YDPDAIQCPYCQRRFNENAADRHI [Y5A] gave a protein stability index of 4.05.
Work on YDPDPIQCPYCQRRFNENAADRHI [Y5P] yielded a protein stability index of 3.84.
Work on YDPDSIQCPYCQRRFNENAADRHI [Y5S] yielded a protein stability index of 4.37.
YDPDDIQCPYCQRRFNENAADRHI [Y5D] gave a protein stability index of 4.24.
YDPDNIQCPYCQRRFNENAADRHI [Y5N] showed a protein stability index of 4.11.
Work on YDPDHIQCPYCQRRFNENAADRHI [Y5H] yielded a protein stability index of 3.69.
In the case of YDPDKIQCPYCQRRFNENAADRHI [Y5K], the protein stability index is reported as 3.21.
For YDEDYIQCPYCQRRFNENAADRHI [P3E], the protein stability index was 4.63.
For YDFDYIQCPYCQRRFNENAADRHI [P3F], the protein stability index was 4.02.
YDRDYIQCPYCQRRFNENAADRHI [P3R] showed a protein stability index of 4.49.
Work on YDMDYIQCPYCQRRFNENAADRHI [P3M] yielded a protein stability index of 4.4.
YDADYIQCPYCQRRFNENAADRHI [P3A] showed a protein stability index of 4.57.
Variant YDGDYIQCPYCQRRFNENAADRHI [P3G] has a protein stability index of 4.67.
YDTDYIQCPYCQRRFNENAADRHI [P3T] gave a protein stability index of 4.65.
YDLDYIQCPYCQRRFNENAADRHI [P3L] showed a protein stability index of 3.55.
In the case of YDDDYIQCPYCQRRFNENAADRHI [P3D], the protein stability index is reported as 4.01.
Variant YDHDYIQCPYCQRRFNENAADRHI [P3H] has a protein stability index of 3.81.
Work on YDQDYIQCPYCQRRFNENAADRHI [P3Q] yielded a protein stability index of 3.86.
Work on YDIDYIQCPYCQRRFNENAADRHI [P3I] yielded a protein stability index of 3.99.
